T1: FcγRIIa (UniProt P12318 34-317, limits assumed)
T1 construct: whole, on cells; also called FcgRIIa; Fcγ receptor IIa
T1 sequence (looked up): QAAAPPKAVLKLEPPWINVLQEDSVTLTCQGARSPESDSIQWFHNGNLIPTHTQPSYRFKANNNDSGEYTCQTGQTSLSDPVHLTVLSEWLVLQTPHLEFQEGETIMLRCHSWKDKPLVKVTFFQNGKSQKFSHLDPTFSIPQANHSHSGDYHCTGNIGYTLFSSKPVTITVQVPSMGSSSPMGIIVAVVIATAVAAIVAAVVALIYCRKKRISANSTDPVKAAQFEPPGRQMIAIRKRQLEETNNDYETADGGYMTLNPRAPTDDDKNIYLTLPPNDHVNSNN

T2: FcγRIIb (UniProt P31994 43-310, limits assumed)
T2 construct: whole, on cells; also called FcgRIIb; Fcγ receptor IIb
T2 sequence (looked up): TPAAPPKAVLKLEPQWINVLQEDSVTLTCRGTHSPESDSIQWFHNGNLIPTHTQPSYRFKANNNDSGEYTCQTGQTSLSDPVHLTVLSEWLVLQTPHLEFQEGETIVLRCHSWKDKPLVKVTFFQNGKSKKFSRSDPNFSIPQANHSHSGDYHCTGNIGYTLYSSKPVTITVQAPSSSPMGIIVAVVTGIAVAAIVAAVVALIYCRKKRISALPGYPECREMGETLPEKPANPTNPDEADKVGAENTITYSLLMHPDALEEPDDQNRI

B1: Bs3GC1a bispecific antibody (bispecific antibody, human IgG1, kappa)
heavy: not shown
light: EIVLTQSPGTLSLSPGETAILSCRASQSVSSSLLAWYQQKPGQAPRLLIYGASNRATGIRGRFSGSGSGTDFTLTISRLEPEDFVLYYCQHYGSRVTFGQGTKLEIKRTVAAPSVFIFPPSDEQLKSGTASVVCLLNNFYPREAKVQWKVDNALQSGNSQESVTEQDSKDSTYSLSSTLTLSKADYEKHKVYACEVTHQGLSSPVTKSFNRGEC
notes: Bispecific tetravalent IgG1, construct type Bs3; specificities GCE536 + GCA7
B2: Ts3GC2d trispecific antibody (antibody, human IgG1, kappa)
heavy: not shown
light: B1 light
notes: Trispecific hexavalent IgG1, construct type Ts3; specificities GCE536 + GCA7 + GCB59; also called TsGC2d; TsgC2d
B3: Bs3GC2b bispecific antibody (bispecific antibody, human IgG1, lambda)
heavy: not shown
light: SYVLTQPPSVSVAPGQTASLTCGGTNIGSKSVHWYQQKAGQAPVLVVYADNDRPSGVPERFSGSNSGNTATLTISRVEAEDESDYFCQVWDGNTDHVVFGGGTKLTVLGQPKAAPSVTLFPPSSEELQANKATLVCLISDFYPGAVTVAWKADSSPVKAGVETTTPSKQSNNKYAASSYLSLTPEQWKSHRSYSCQVTHEGSTVEKTVAPTECS
notes: Bispecific tetravalent IgG1, construct type Bs3; specificities GCE536 + GCB59
B4: Bs3GC3b bispecific antibody (bispecific antibody, human IgG1, lambda)
heavy: not shown
light: B3 light
notes: Bispecific tetravalent IgG1, construct type Bs3; specificities GCA7 + GCB59

Tests used:
[1] = target: T3, human GM-CSF (granulocyte macrophage-colony stimulating factor) (human, UniProt P04141 18-144); experiment: ELISA on GM-CSF
T3 construct: Soluble cytokine used in ELISA, SPR, TF-1 bioassay and immune complex formation; also called recombinant GM-CSF

[2] = target: T3, human GM-CSF (granulocyte …); experiment: cell-based or functional assay
FcγRIIa [3] = target: T1, FcγRIIa; experiment: flow cytometry, TZM-bl cells expressing FcγRIIa, mAb alone (w/o GM-CSF)
Experimental: (§1) Expression of specific FcγRs was assessed by staining TZM-b1 cells with FITC-conjugated anti-CD64 (anti-FcγRI), anti-CD32 (anti-FcγRIIa and anti-FcγRIIb) and anti-CD16 (anti-FcγRIIIa) antibodies (all from BD Pharmingen). Untrasfected and transfected TZM-b1 cells were washed with staining buffer (PBS with 10% Fetal Bovine Serum and 2 mM EDTA) and seeded in 96-well-plates at a density of 50,000 cells per well. […] The LALA versions of all antibodies and a mAb with a different specificity were included as controls. Samples were incubated at 37° C. for 30 min to allow the formation of immune complexes and then cooled down to 4° C. before adding them to TZM-b1 cells for 30 min. Cells were washed twice and stained with anti-human IgG Fcγ fragment specific F(ab′)2 fragment (Jackson ImmunoResearch). Samples were analyzed on BD FACSCanto (BD Biosciences) and median intensity fluorescence was analyzed and compared between samples.
(§2) To address the engagement of Fcγ receptors, immune complexes formed between GM-CSF and multispecific antibodies were tested for their capacity to bind to TZM-b1 cells expressing FcγRIIa and FcγRIIb receptors. Multispecific antibodies were mixed with 0.05 μg/ml of GM-CSF, or staining buffer. Samples were incubated at 37° C. for 30 min to allow the formation of immune complexes and then cooled down to 4° C. before adding them to TZM-b1 cells for 30 minutes. Cells were washed twice and stained with anti-human IgG Fcγ fragment specific F(ab′)2 fragment. Samples were analyzed on BD FACSCanto (BD Biosciences) and median intensity fluorescence was analyzed and compared between samples.

FcγRIIb [4] = target: T2, FcγRIIb; experiment: flow cytometry, TZM-bl cells expressing FcγRIIb, mAb alone (w/o GM-CSF)
Experimental: as §1, §2

FcγRIIa [5] = target: T1, FcγRIIa; experiment: flow cytometry, TZM-bl cells expressing FcγRIIa, immune complex with low GM-CSF
Experimental: as §1, §2

FcγRIIb [6] = target: T2, FcγRIIb; experiment: flow cytometry, TZM-bl cells expressing FcγRIIb, immune complex with low GM-CSF
Experimental: as §1, §2

FcγRIIa [7] = target: T1, FcγRIIa; experiment: flow cytometry, TZM-bl cells expressing FcγRIIa, immune complex with high GM-CSF
Experimental: as §2

FcγRIIb [8] = target: T2, FcγRIIb; experiment: flow cytometry, TZM-bl cells expressing FcγRIIb, immune complex with high GM-CSF
Experimental: as §1, §2

FcγRIIa [9] = target: T1, FcγRIIa; experiment: flow cytometry, TZM-bl FcγRIIa cells; average ratio of binding in presence and in absence of GM-CSF
Experimental: as §2

FcγRIIb [10] = target: T2, FcγRIIb; experiment: flow cytometry, TZM-bl FcγRIIb cells; average ratio of binding in presence and in absence of GM-CSF
Experimental: as §1, §2

T3 sequence (P04141 18-144 limits assumed): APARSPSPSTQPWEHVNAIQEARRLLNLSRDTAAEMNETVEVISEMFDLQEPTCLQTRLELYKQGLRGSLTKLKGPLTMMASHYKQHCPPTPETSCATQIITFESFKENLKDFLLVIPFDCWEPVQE

| Binder | EC50 [1] [ng/mL] | IC90 less stringent conditions (50 pg/ml GM-CSF, 1,000 TF-1/well) [2] [ng/mL] | IC90 more stringent conditions (500 pg/ml GM-CSF, 1,000 TF-1/well) [2] [ng/mL] | IC90 stringent conditions (50 pg/ml GM-CSF, 10,000 TF-1/well) [2] [ng/mL] | IC90 very stringent conditions (500 pg/ml GM-CSF, 10,000 TF-1/well) [2] [ng/mL] | MFI (FcγRIIa [3]) [MFI] | MFI (FcγRIIb [4]) [MFI] | MFI (FcγRIIa [5]) [MFI] | MFI (FcγRIIb [6]) [MFI] | MFI (FcγRIIa [7]) [MFI] | MFI (FcγRIIb [8]) [MFI] | Average RATIO FcgRIIa (FcγRIIa [9]) [ratio] | Average RATIO FcgRIIb (FcγRIIb [10]) [ratio] |
| --- | --- | --- | --- | --- | --- | --- | --- | --- | --- | --- | --- | --- | --- |
| B1 | 74.3 | 0.681 | 4.72 | 0.963 | 6.24 | 687 | 20600 | 1270 | 175000 | 65300 | 510000 | 48.4 | 16.6 |
| B2 | 29.6 | 0.536 | 0.795 | 0.413 | 0.768 | 1310 | 29000 | 7900 | 344000 | 122000 | 652000 | 49.5 | 17.2 |
| B3 | 48.6 | 0.559 | 6.21 | 1.07 | 11.2 | 6910 | 96700 | 7130 | 181000 | 269000 | 1.3e+06 | 20 | 7.67 |
| B4 | 587 | 1.28 | 17.8 | 2.96 | 124 | 650 | 2630 | 8290 | 57800 | 55000 | 433000 | 48.7 | 93.3 |

Reference: US20200362026A1 (INSTITUTE FOR RESEARCH IN BIOMEDICINE, published 2020)
